Test results reported in PMC12871931, “The importin‐alpha superfamily engages in ethylene signaling by shuttling ETHYLENE INSENSITIVE 2 from the endoplasmic reticulum to the nucleus” (The Febs Journal, 2025).

B1: GB1‐AtEIN2C^1215–1281 (domain or fragment)
chain: KGKCTTAVTLLDLIKDVEMAISCRKGRTGTAAGDVAFPKGKENLASVLKRYKRRLSNKPVGMNQDGP
B2: NOP‐1 (EIN2 NLS peptide, EIN2 residues 1262–1269) (peptide)
peptide: LKRYKRRL
B3: N41P‐1 (EIN2 residues 1229–1269) (peptide)
peptide: KDVEMAISCRKGRTGTAAGDVAFPKGKENLASVLKRYKRRL

These binders were tested against ΔIBB_IMPα1 (importin α1 lacking the IBB domain), Arabidopsis thaliana, recombinant (Arabidopsis thaliana) (assay: BLI; Octet K2; biotinylated ΔIBB_IMPα1 or IMPα4 loaded (15 μM, 600 s) on streptavidin biosensors; peptides/protein in solution; 100 mM Tris pH 7.0, 100 mM KCl, 0.01% Tween 20; room temperature; 300 s association, 300 s dissociation; dose response curves, 1:2 heterogeneous ligand model).

Kd [µM] | Binder
8.8 | B1
2.5 | B2
8.1 | B3
